± gives the uncertainty stated by the source.
Experiment: self-splicing fitness, log relative to wild type (ln ratio); higher = more splicing; Tetrahymena group I intron in knt gene, E. coli kanamycin selection, DiMSum; sequences stand for … in CUCUCU…GGAGGGAAAAGUUAUCAGGCAUGCACCUGGUAGCUAGUCUUUAAACCAAUAGAUUGCAUCGGUUUAAAAGGCAAGACCGUCAAAUUGCGGGAAAGGGGUCAACAGCCGUUCAGUACCAAGUCUCAGGGGAAACUUUGAGAUGGCCUUGCAAAGGGUAUGGUAAUAAGCUGACGGACAUGGUCCUAACCACGCAGCCAAGUCCUAAGUCAACAGAUCUUCUGUUGAUAUGGAUGCAGUUCACAGACUAAAUGUCGGUCGGGGAAGAUGUAUUCUUCUCAUAAGAUAUAGUCGGACCUCUCCUUAAUGGGAGCUAGCGGAUGAAGUGAUGCAACACUGGAGCCGCUGGGAACUAAUUUGUAUGCGAAAGUAUAUUGAUUAGUUUUGGAGUACUCGUGGUCG
Outline: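 Pooled colonies went to amplicon sequencing on an Illumina HiSeq 2500 after six replicate transformations. The plates were LB agar with 100 μg/mL carbenicillin, 50 μM IPTG and 0.2% rhamnose, with or without 25 μg/mL kanamycin, incubated overnight at 37°C or 30°C. The E. coli BL21(DE3) library had all eight P1ex-region intron nucleotides randomised, the intron placed in the knt kanamycin-resistance gene on pET-22b(+). DiMSum fitness is the error-weighted combination of replicate fold changes, kanamycin against none, normalised to wild type.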

Row | Sequence | self-splicing fitness (ln) (30 °C) | self-splicing fitness (ln) (37 °C)
1 | ACCUAGCAAUAUUACGGGUC | -4.05 ± 0.23 | -2.57 ± 0.23
2 | ACCUAGCAAUAUUACGGUAG | -3.45 ± 0.15 | -2.49 ± 0.18
3 | ACCUAGCAAUAUUACGGUCA | -1.74 ± 0.091 | -0.306 ± 0.082
4 | ACCUAGCAAUAUUACGGUCU | -1.69 ± 0.096 | -0.98 ± 0.11
5 | ACCUAGCAAUAUUACGUAAC | -2.22 ± 0.12 | -1.66 ± 0.18
6 | ACCUAGCAAUAUUACGUACU | -0.755 ± 0.052 | -0.159 ± 0.062
7 | ACCUAGCAAUAUUACGUCAA | -2.03 ± 0.2 | -1.78 ± 0.17
8 | ACCUAGCAAUAUUACGUGAU | -1.5 ± 0.057 | -0.344 ± 0.074
9 | ACCUAGCAAUAUUACGUUAA | -2.38 ± 0.14 | -1.9 ± 0.17
10 | ACCUAGCAAUAUUACGUUGC | -2.21 ± 0.1 | -1.56 ± 0.14
11 | ACGAAGCAAUAUUACGAAAA | -3.5 ± 0.43 | -2.78 ± 0.43
12 | ACGAAGCAAUAUUACGAGUG | -2.77 ± 0.1 | -2.29 ± 0.11
13 | ACGAAGCAAUAUUACGCAAU | -1.6 ± 0.091 | -1.42 ± 0.094
14 | ACGAAGCAAUAUUACGCACA | -0.494 ± 0.096 | -0.0286 ± 0.098
15 | ACGAAGCAAUAUUACGCAUC | -3.54 ± 0.18 | -3.42 ± 0.3
16 | ACGAAGCAAUAUUACGCGAU | -2.21 ± 0.13 | -0.777 ± 0.14
17 | ACGAAGCAAUAUUACGCUAG | -1.5 ± 0.084 | -0.372 ± 0.11
18 | ACGAAGCAAUAUUACGCUCC | -2.06 ± 0.42 | -0.416 ± 0.41
19 | ACGAAGCAAUAUUACGGAGC | -3.94 ± 0.27 | -1.29 ± 0.23
20 | ACGAAGCAAUAUUACGGCGG | -0.224 ± 0.089 | 0.0437 ± 0.13
21 | ACGAAGCAAUAUUACGGGGG | -2.58 ± 0.15 | -2.27 ± 0.25
22 | ACGAAGCAAUAUUACGGUAG | -2.36 ± 0.15 | -2.22 ± 0.22
23 | ACGAAGCAAUAUUACGGUCG | -0.954 ± 0.066 | -0.311 ± 0.082
24 | ACGAAGCAAUAUUACGUCCG | -0.464 ± 0.097 | -0.122 ± 0.12

Row | Sequence | self-splicing fitness (ln) (30 °C) | self-splicing fitness (ln) (37 °C)
25 | ACGAAGCAAUAUUACGUGUA | -2.15 ± 0.058 | -1.24 ± 0.058
26 | ACGAAGCAAUAUUACGUUCA | -1.14 ± 0.05 | -0.417 ± 0.057
27 | ACGCAGCAAUAUUACGACAA | -1.61 ± 0.12 | -0.427 ± 0.097
28 | ACGCAGCAAUAUUACGACCG | -0.348 ± 0.15 | -0.0722 ± 0.19
29 | ACGCAGCAAUAUUACGACCU | 0.0699 ± 0.061 | 0.401 ± 0.073
30 | ACGCAGCAAUAUUACGAGCA | -1.58 ± 0.096 | -1.2 ± 0.11
31 | ACGCAGCAAUAUUACGAUAU | -2.42 ± 0.096 | -1.02 ± 0.12
32 | ACGCAGCAAUAUUACGAUUU | -1.01 ± 0.081 | -0.413 ± 0.1
33 | ACGCAGCAAUAUUACGCAUG | -3.56 ± 0.14 | -2.57 ± 0.21
34 | ACGCAGCAAUAUUACGCCAA | -3.3 ± 0.2 | -1.75 ± 0.17
35 | ACGCAGCAAUAUUACGCCGA | -1.23 ± 0.099 | -0.977 ± 0.094
36 | ACGCAGCAAUAUUACGCUAA | -1.79 ± 0.08 | -0.352 ± 0.081
37 | ACGCAGCAAUAUUACGGACU | -0.613 ± 0.081 | 0.0817 ± 0.098
38 | ACGCAGCAAUAUUACGGAGG | -3.65 ± 0.15 | -1.84 ± 0.12
39 | ACGCAGCAAUAUUACGGCUA | -0.12 ± 0.064 | -0.215 ± 0.075
40 | ACGCAGCAAUAUUACGGGAC | -3.2 ± 0.22 | -1.84 ± 0.2
41 | ACGCAGCAAUAUUACGGGGG | -3.86 ± 0.2 | -2.54 ± 0.19
42 | ACGCAGCAAUAUUACGUAGA | -2.99 ± 0.16 | -2.53 ± 0.21
43 | ACGCAGCAAUAUUACGUAUG | -4.32 ± 0.22 | -2.54 ± 0.16
44 | ACGCAGCAAUAUUACGUCUG | -2.44 ± 0.14 | -2.5 ± 0.28
45 | ACGCAGCAAUAUUACGUGAA | -2.62 ± 0.15 | -1.01 ± 0.13
46 | ACGCAGCAAUAUUACGUGCA | -1.58 ± 0.076 | -0.0655 ± 0.083
47 | ACGCAGCAAUAUUACGUGUA | -2.93 ± 0.11 | -1.6 ± 0.082

Source: the supplement of paper PMC7877785
